One assay concerns the target T1, human LGR6 transgene (human, UniProt Q9HBX8 25-967).
T1 construct: whole, on cells; Overexpressed in HEK293T cells with N-terminal HA tag, V2 receptor tail and eGFP; also tested as lysate; also called hLGR6; LGR6-eGFP
T1 sequence (looked up): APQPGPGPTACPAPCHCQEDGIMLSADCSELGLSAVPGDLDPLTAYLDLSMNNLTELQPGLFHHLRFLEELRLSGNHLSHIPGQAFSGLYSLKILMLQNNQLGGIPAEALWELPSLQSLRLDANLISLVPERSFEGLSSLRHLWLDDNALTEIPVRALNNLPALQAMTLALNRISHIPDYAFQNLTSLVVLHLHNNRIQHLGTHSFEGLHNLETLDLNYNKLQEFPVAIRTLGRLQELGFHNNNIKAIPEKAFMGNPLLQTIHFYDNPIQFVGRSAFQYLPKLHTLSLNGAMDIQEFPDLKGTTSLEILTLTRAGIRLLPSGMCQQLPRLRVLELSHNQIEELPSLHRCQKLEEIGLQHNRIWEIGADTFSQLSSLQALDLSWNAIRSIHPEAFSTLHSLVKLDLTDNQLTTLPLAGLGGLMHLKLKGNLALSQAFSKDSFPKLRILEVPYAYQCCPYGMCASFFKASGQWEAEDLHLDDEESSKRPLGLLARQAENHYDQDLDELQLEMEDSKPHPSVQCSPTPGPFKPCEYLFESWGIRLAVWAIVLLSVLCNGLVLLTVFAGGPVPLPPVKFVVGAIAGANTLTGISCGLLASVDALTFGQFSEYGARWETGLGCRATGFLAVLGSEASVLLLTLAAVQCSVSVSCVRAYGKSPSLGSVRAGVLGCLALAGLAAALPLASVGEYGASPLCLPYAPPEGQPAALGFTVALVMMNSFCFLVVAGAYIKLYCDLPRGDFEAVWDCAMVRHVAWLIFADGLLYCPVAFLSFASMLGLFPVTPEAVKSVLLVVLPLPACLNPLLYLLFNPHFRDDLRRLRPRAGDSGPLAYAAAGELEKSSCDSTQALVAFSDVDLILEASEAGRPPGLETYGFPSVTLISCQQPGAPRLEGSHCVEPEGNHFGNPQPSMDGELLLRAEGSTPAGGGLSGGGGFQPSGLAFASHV
Kind of assay: indirect immunofluorescence on HEK293T cells expressing human and murine LGR family transgenes (FIG. 14B).

The next assay deals with T2, murine LGR6 transgene (mouse, UniProt Q3UVD5 23-967).
T2 construct: whole, on cells; also called mLGR6
T2 sequence (looked up): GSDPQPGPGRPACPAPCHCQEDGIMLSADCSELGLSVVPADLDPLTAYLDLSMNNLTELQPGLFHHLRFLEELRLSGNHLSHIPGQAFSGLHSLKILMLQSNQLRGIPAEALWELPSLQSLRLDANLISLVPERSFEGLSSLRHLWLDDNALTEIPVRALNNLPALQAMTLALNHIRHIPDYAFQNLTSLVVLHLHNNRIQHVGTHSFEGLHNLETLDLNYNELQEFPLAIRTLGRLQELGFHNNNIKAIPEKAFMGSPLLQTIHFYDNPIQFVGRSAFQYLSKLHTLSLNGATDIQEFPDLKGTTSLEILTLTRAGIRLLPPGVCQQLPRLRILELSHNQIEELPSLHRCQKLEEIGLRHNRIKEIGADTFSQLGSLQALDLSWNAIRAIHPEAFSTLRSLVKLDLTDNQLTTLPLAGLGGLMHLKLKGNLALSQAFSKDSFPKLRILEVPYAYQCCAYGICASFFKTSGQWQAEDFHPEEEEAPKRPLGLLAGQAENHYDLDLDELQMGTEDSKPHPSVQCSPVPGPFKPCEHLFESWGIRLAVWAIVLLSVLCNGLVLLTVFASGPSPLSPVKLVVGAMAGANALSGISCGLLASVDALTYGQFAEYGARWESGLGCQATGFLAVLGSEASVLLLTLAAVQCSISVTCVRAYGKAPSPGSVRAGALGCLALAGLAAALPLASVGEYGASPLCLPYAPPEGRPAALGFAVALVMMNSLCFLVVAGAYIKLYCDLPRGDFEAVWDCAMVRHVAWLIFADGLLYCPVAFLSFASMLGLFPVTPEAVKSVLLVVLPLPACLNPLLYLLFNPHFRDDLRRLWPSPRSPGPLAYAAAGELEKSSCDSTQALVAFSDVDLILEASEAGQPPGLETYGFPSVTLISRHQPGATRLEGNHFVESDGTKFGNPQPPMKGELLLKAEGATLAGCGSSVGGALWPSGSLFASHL
The description is as above.

B1: α-LGR5 variant 4 (antibody, human IgG1, kappa, V domains shown)
VH: QVQLVQSGAEVKKPGASVKVSCKASGYTFTNYWMQWVRQAPGQGLEWIGEIDPSDSYTNYNQKFQGRVTLTVDTSTSTAYMELSSLRSEDTAVYYCARSLSGYVDYWGQGTTVTVSS
VL: EIVMTQSPATLSLSPGERATLSCRASQDISNRLNWYQQKPGQAVRLLISYRSRRHTGIPARFSGSGSGTDYTLTISSLEPEDFAVYYCQQGNSLPPTFGGGTKLEIKR
notes: Humanized antibody; also called α-LGR5v4; clone 2.4
In the case of B1, the binding result with human LGR6 transgene and in the assay with murine LGR6 transgene was “no binding” in each case.

The record behind these values is patent US20250257126A1 (CAMBRIDGE ENTERPRISE, published 2025).
